The values below come from patent publication US20220040297A1 (Chugai, published 2022).

Ends that are not written are not given here.

Experiment [1] has as its target T1, human IgA-Fc with AviTag, biotinylated (human, UniProt P01876 123-333, limits assumed, biotinylated at the C-terminal AviTag sequence).
T1 construct: also called hIgA; biotinylated human IgA
As to the kind of experiment: ECL; biotinylated hIgA, ratio to the no-antigen well.

The target in experiment [2] is T1, human IgA-Fc with AviTag, biotinylated. The description is as above. The source holds these as a separate data set.
The target in experiment [3] is T2, biotin-labeled CD3ε peptide (also: biotin-labeled, site not given here).
T2 construct: also called CD3 peptide; biotinylated CD3ε peptide
T2 peptide: QDGNEEMGGITQTPY
As to the kind of experiment: ECL; CD3 peptide as antigen, ratio to the no-antigen well.

Experiment [4] deals with T3, integrin αvβ3 (R&D Systems, Inc.) (human, UniProt P06756 31-992; P05106 27-718). As to the kind of experiment: ECL; integrin αvβ3 on plate, ratio to the integrin-free well.
In experiment [5] the target is T1, human IgA-Fc with AviTag, biotinylated. As to the kind of experiment: ECL; hIgA value without against with integrin αvβ3 (competitor).
The target is the same in experiment [6]. As to the kind of experiment: ECL; hIgA signal without against with CD3ε homodimer protein (competitor).
Experiment [7] addresses T3, integrin αvβ3 (R&D Systems, Inc.). As to the kind of experiment: ECL; integrin αvβ3 value without against with CD3ε homodimer protein (competitor).
Experiment [8] has as its target T1, human IgA-Fc with AviTag, biotinylated. As to the kind of experiment: ECL; biotinylated hIgA with integrin αvβ3 (competitor), ratio to the no-antigen well.
The target is the same in experiment [9]. As to the kind of experiment: ECL; biotinylated hIgA with CD3ε homodimer protein (competitor), ratio to the no-antigen well.
Experiment [10] concerns the target T3, integrin αvβ3 (R&D Systems, Inc.). As to the kind of experiment: ECL; integrin αvβ3 on plate with CD3ε homodimer protein (competitor), ratio to the integrin-free well.

B1: IGAR6(2)B02 (antibody, human IgG1, kappa, L234A L235A, N297A)
heavy: QVQLVESGGGLVQPGRSLRLSCAASGFTFSNAWMHWVRQAPGKGLEWVAQIKDKGQQYAAYYAPSVKGRFTISRDDSKNSIYLQMNSLKTEDTAVYYCRYVHYQTYSDGSFYFGVDAWGQGTTVTVSSASTKGPSVFPLAPSSKSTSGGTAALGCLVKDYFPEPVTVSWNSGALTSGVHTFPAVLQSSGLYSLSSVVTVPSSSLGTQTYICNVNHKPSNTKVDKKVEPKSCDKTHTCPPCPAPEAAGGPSVFLFPPKPKDTLMISRTPEVTCVVVDVSHEDPEVKFNWYVDGVEVHNAKTKPREEQYASTYRVVSVLTVLHQDWLNGKEYKCKVSNKALPAPIEKTISKAKGQPREPQVYTLPPSRCELTKNQVSLSCAVKGFYPSDIAVEWESNGQPENNYKTTPPVLDSDGSFFLVSKLTVDKSRWQQGNVFSCSVMHEALHNHYTQKSLSLSPDYKDDDDK
chain: EPKSSDKTHTCPPCPAPELLGGPSVFLFPPKPKDTLMISRTPEVTCVVVDVSHEDPEVKFNWYVDGVEVHNAKTKPREEQYNSTYRVVSVLTVLHQDWLNGKEYKCKVSNKALPAPIEKTISKAKGQPREPQVCTLPPSRDELTKNQVSLWCLVKGFYPSDIAVEWESNGQPENNYKTTPPVLDSDGSFFLYSKLTVDKSRWQQGNVFSCSVMHEALHNRYTQKSLSLSP
light: DIVMTQSPLSLPVTPGEPASISCRSSQSLVHSNRNTYLHWYQQKPGQAPRLLIYKVSNRFSGVPDRFSGSGSGTDFTLKISRVEAEDVGVYYCGQGTQVPYTFGQGTKLEIKRTVAAPSVFIFPPSDEQLKSGTASVVCLLNNFYPREAKVQWKVDNALQSGNSQESVTEQDSKDSTYSLSSTLTLSKADYEKHKVYACEVTHQGLSSPVTKSFNRGEC
notes: One-arm antibody; also called IGA6 (2) B02; IGAR6(2)B02#1
On to B1, for which the “Value as compared with antigen-free well” value was determined as 20 fold in experiment [1]; 15.6 fold in experiment [2]; 910 fold in experiment [3]; 15.9 fold in experiment [8]; 1 fold in experiment [9]. The “Value as compared with integrin αvβ3-free well” value in [4] and in experiment [10] was 0.8 fold in each case. In addition, the “Amount of binding to hIgA attenuated by integrin αvβ3” value in experiment [5] is 1 fold. Besides, the “Amount of binding to hIgA attenuated by CD3” value in [6] was 23.4 fold. Besides, the “Amount of binding to integrin αvβ3 attenuated by CD3” value in experiment [7] is 1 fold.

B2: IGAR6(2)B02H1 (antibody, human IgG1, kappa, L234A L235A, N297A)
heavy: QVQLVESGGGLVQPGRSLRLSCAASGFTFSNAWMHWVRQAPGKGLEWVAQIKDKGQQYAAYYAPSVKGRFTISRDGCRGDCLDSKNSIYLQMNSLKTEDTAVYYCRYVHYQTYSDGSFYFGVDAWGQGTTVTVSSASTKGPSVFPLAPSSKSTSGGTAALGCLVKDYFPEPVTVSWNSGALTSGVHTFPAVLQSSGLYSLSSVVTVPSSSLGTQTYICNVNHKPSNTKVDKKVEPKSCDKTHTCPPCPAPEAAGGPSVFLFPPKPKDTLMISRTPEVTCVVVDVSHEDPEVKFNWYVDGVEVHNAKTKPREEQYASTYRVVSVLTVLHQDWLNGKEYKCKVSNKALPAPIEKTISKAKGQPREPQVYTLPPSRCELTKNQVSLSCAVKGFYPSDIAVEWESNGQPENNYKTTPPVLDSDGSFFLVSKLTVDKSRWQQGNVFSCSVMHEALHNHYTQKSLSLSPDYKDDDDK
chain: EPKSSDKTHTCPPCPAPELLGGPSVFLFPPKPKDTLMISRTPEVTCVVVDVSHEDPEVKFNWYVDGVEVHNAKTKPREEQYNSTYRVVSVLTVLHQDWLNGKEYKCKVSNKALPAPIEKTISKAKGQPREPQVCTLPPSRDELTKNQVSLWCLVKGFYPSDIAVEWESNGQPENNYKTTPPVLDSDGSFFLYSKLTVDKSRWQQGNVFSCSVMHEALHNRYTQKSLSLSP
light: DIVMTQSPLSLPVTPGEPASISCRSSQSLVHSNRNTYLHWYQQKPGQAPRLLIYKVSNRFSGVPDRFSGSGSGTDFTLKISRVEAEDVGVYYCGQGTQVPYTFGQGTKLEIKRTVAAPSVFIFPPSDEQLKSGTASVVCLLNNFYPREAKVQWKVDNALQSGNSQESVTEQDSKDSTYSLSSTLTLSKADYEKHKVYACEVTHQGLSSPVTKSFNRGEC
notes: One-arm antibody
As for B2, the “Value as compared with antigen-free well” value in experiment [1] amounted to 8 fold; in experiment [2], 3.9 fold; in experiment [3] it was 1410 fold; in [8], 1.6 fold; in [9] it was 1 fold. The “Value as compared with integrin αvβ3-free well” value in [4] stood at 438 fold; in [10] it was 185 fold. Further, the “Amount of binding to hIgA attenuated by integrin αvβ3” value in [5] came out at 2.5 fold. Besides, the “Amount of binding to hIgA attenuated by CD3” value in experiment [6] is 7.4 fold. Moreover, in experiment [7], the “Amount of binding to integrin αvβ3 attenuated by CD3” value amounted to 2.4 fold.
